The text below walks through data of paper PMC2811012 (Nucleic Acids Research, 2009).

In assay [1] the target is T1, GST-MPP8 (MPP8 chromodomain) (Homo sapiens, UniProt Q99549).
T1 sequence (Q99549 50-120): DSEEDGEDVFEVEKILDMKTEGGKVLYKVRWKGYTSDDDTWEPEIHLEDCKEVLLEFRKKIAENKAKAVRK
The experiment in a line: AlphaScreen competitive binding, GST-MPP8/b-H3K9me3.

Assay [2] concerns the target Mouse heterochromatin protein 1-beta chromodomain-containing region (amino acids 1–185) with N-terminal GST tag (mouse) (UniProt P83917). Kind of assay: AlphaScreen or HTRF.
In assay [3] the target is Human M-phase phosphoprotein chromodomain-containing region (amino acids 50–120) with N-terminal GST tag (human) (UniProt Q99549). The experiment in a line: AlphaScreen or HTRF.

Mouse heterochromatin protein 1-beta chromodomain-containing region (amino acids 1–185) with N-terminal GST tag (mouse), sequence (P83917 whole entry, the tested form may be a part): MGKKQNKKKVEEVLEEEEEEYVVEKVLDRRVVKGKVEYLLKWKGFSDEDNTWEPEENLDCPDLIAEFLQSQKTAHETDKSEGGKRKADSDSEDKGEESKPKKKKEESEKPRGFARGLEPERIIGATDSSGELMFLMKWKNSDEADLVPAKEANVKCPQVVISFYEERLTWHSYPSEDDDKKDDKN

Consider `C[C@H](N)C(=O)N[C@@H](CCCNC(=N)N)C(=O)N[C@H](C(=O)N[C@@H](CCCCN)C(=O)N[C@@H](CCC(N)=O)C(=O)N[C@H](C(=O)N[C@@H](C)C(=O)N[C@@H](CCCNC(=N)N)C(=O)N[C@@H](CCCCN)C(=O)N[C@@H](CO)C(=O)N[C@H](C(=O)NCC(=O)NCC(=O)N[C@@H](CCCCN)C(=O)N[C@@H](C)C(=O)N1CCC[C@H]1C(=O)N[C@@H](CCCNC(=N)N)C(=O)N[C@@H](CCCCN)C(=O)O)[C@@H](C)O)[C@@H](C)O)[C@@H](C)O` [Peptide H3], for which it took 160 µM to reach a half-maximal effect in assay [1] (EC50).
Regarding “biotinylated histone H3 peptide trimethylated at Lys4”, the AlphaScreen signal in assay [2] turned out to be 7800 c.p.s; in assay [3], 26000 c.p.s.
Turning to “biotinylated histone H3 peptide trimethylated at Lys9”, the fold AlphaScreen signal over b-H3K4me3 in assay [2] was determined as 3.3 fold; in assay [3], 1.7 fold.
